These results are taken from publication doi:10.1101/2022.02.05.479199.

This data set addresses RPA-DBD-D-Cy3;Rtt105-Cy5 (C13S) C13S (Saccharomyces cerevisiae;Saccharomyces cerevisiae?) (UniProt P22336+P26754+P26755+P40063). Put plainly: FRET titration.

Sequence of RPA-DBD-D-Cy3;Rtt105-Cy5 (C13S) C13S (Saccharomyces cerevisiae;Saccharomyces cerevisiae?) (P22336 whole entry, chain 1 of 4): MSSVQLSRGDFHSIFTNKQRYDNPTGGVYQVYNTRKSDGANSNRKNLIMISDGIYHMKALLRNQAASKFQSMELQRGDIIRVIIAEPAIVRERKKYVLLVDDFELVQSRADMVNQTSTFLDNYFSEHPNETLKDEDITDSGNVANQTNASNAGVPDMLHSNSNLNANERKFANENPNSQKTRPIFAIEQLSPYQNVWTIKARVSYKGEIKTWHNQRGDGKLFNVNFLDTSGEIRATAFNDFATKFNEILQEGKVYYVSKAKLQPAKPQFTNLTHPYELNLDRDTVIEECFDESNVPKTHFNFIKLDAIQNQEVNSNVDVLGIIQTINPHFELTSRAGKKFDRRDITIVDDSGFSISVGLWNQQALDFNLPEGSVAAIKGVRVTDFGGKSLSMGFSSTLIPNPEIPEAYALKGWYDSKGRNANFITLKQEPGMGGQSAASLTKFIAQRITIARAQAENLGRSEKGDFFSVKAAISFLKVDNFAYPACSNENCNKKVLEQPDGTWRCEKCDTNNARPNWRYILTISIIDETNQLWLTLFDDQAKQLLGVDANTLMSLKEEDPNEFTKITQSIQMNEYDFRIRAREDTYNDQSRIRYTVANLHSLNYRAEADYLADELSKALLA
Sequence of RPA-DBD-D-Cy3;Rtt105-Cy5 (C13S) C13S (Saccharomyces cerevisiae;Saccharomyces cerevisiae?) (P26754 whole entry, chain 2 of 4): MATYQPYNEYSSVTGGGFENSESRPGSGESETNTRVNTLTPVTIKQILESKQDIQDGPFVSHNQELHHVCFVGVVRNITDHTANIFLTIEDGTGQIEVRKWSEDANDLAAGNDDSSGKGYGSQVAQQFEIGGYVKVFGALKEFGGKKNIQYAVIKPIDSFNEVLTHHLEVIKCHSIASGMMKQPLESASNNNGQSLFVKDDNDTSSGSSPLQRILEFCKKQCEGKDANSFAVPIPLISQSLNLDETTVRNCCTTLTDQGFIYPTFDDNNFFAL
Sequence of RPA-DBD-D-Cy3;Rtt105-Cy5 (C13S) C13S (Saccharomyces cerevisiae;Saccharomyces cerevisiae?) (P26755 whole entry, chain 3 of 4): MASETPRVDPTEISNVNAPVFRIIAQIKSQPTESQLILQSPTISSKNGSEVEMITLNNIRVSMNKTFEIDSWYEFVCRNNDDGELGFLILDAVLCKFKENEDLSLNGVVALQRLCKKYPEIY
Sequence of RPA-DBD-D-Cy3;Rtt105-Cy5 (C13S) C13S (Saccharomyces cerevisiae;Saccharomyces cerevisiae?) (P40063 whole entry C13S, chain 4 of 4): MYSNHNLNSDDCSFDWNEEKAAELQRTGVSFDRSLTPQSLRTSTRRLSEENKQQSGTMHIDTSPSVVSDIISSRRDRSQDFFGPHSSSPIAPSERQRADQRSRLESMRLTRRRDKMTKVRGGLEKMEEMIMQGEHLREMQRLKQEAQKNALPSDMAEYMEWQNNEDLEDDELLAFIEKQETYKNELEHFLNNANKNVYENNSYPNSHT

“TTTTTTTTTTTTTTTTTTTTTTTTTTTTTTTTTTT [(dT)35]” had a K half of 130 nM.
The same measure for “TTTTTTTTTTTTTTTTTTTTTTTTTTTTTTTTTTTTTTTTTTTTTTTTTTTTTTTTTTTTTTTTTTTTTT [(dT)70]”: 42.8 nM.
